Legend:
[1] = target: 沙眼衣原体培养物(购自菲鹏生物) (Chlamydia trachomatis); assay: indirect ELISA, plate coated with C. trachomatis culture diluted 100x; antibody at 2.5 ng/ml
[2] = target: 沙眼衣原体培养物(购自菲鹏生物) (Chlamydia trachomatis); assay: indirect ELISA, plate coated with C. trachomatis culture diluted 100x; antibody at 5 ng/ml
[3] = target: 沙眼衣原体培养物(购自菲鹏生物) (Chlamydia trachomatis); assay: indirect ELISA, plate coated with C. trachomatis culture diluted 100x; antibody at 0 ng/ml (blank)
[4] = target: 沙眼衣原体培养物(购自菲鹏生物) (Chlamydia trachomatis); assay: indirect ELISA, plate coated with C. trachomatis culture diluted 100x; antibody at 10 ng/ml
[5] = target: 沙眼衣原体培养物(购自菲鹏生物) (Chlamydia trachomatis); assay: indirect ELISA, plate coated with C. trachomatis culture diluted 100x; antibody at 20 ng/ml
[6] = target: 沙眼衣原体培养物(购自菲鹏生物) (Chlamydia trachomatis); assay: indirect ELISA, plate coated with C. trachomatis culture diluted 100x; antibody at 40 ng/ml

| OD (450nm, 参考630nm) [1] [OD] | OD (450nm, 参考630nm) [2] [OD] | OD (450nm, 参考630nm) [3] [OD] | OD (450nm, 参考630nm) [4] [OD] | OD (450nm, 参考630nm) [5] [OD] | OD (450nm, 参考630nm) [6] [OD] | Molecule |
| --- | --- | --- | --- | --- | --- | --- |
| 0.291 | 0.503 | 0.025 | 0.825 | 1.2 | 1.79 | 对照 (antibody) |
| 0.462 | 0.811 | 0.043 | 1.14 | 1.65 | 1.9 | Anti-CT-4B11mut1单克隆抗体 (antibody, mouse IgG2a, kappa, V domains shown) VH: QVQVRQSGPGLVQPSQSLSITCTVSGFSLRSHGVNWVRQSPRKGLEWLGVIWKGGSTEYSAAFMSRLSISKDNSKNQIFFKMNSLQADDTAIYYCAKNNDYGRFDYWGQGTLVTVSA VL: EVVLTQSPTTLAASPGETITITCRVSSSISSSYLHWYQQKPGFSPKLLIYRTSNLASGVPARFSGSGSGTSYSLTIGTMEADDVATYYCQQGSSLPRTFGGGTTLEIKR |
| 0.507 | 0.959 | 0.026 | 1.33 | 1.71 | 1.92 | Anti-CT-4B11mut2单克隆抗体 (antibody, part only; not given: light chain, part only) heavy: QVQVRQSGPGLVQPSQSLSITCTVSGFSLRSHGVNWVRQSPRKGLEWLGVIWKGGSTEYSAAFMSRLSISKDNSKNQIFFKMNSLQADDTAIYYCAKNNDYGRFDYWGQGTLVTVSAAKTTAPSVYPLAPVCGDTTGSSVTLGCLVKGYFPEPVTLTWNSGSLSSGVHTFPAVLQSDLYTLSSSVTVTSSTWPSQSITCNVAHPASSTKVDKKIEPRGPTIKPCPPCKCPAPNLLGGPSVFIFPPKIKDVLMISLSPIVTCVVVDVSEDDPDVQISWFVNNVEVHTAQTQTHREDYNSTLRVVSALPIQHQDWMSGKEFKCKVNNKDLPAPIERTISKPKGSVRAPQVYVLPPPEEEMTKKQVTLTCMVTDFMPEDIYVEWTNNGKTELNYKNTEPVLDSDGSYFMYSKLRVEKKNWVERNSYSCSVVHEGLHNHHTTKSFSRTPGK |

Reference: patent publication CN116854812A
